By IC50 is commonly meant the concentration at which inhibition is half-maximal. What is called Kd is the free concentration of one partner at which half of the binding sites on the other are occupied at equilibrium, for simple one-to-one binding. Usually EC50 (read off the curve) stands for the concentration needed to bring the measured effect to its halfway point.

Where “and” joins values, the source holds several entries; their conditions need not be identical. Equal entries are not always repeated.

For assay [1], the target named is T1, recombinant human (rh) PD-L1 Fc fusion (RnD Systems, USA, cat. no. 156-B7) (human, UniProt Q9NZQ7 19-239).
T1 construct: Bought reagent; also called human PD-L1 Fc fusion; not shown: Fc part of the bought fusion
Briefly: competition ELISA, rhPD-L1 Fc fusion coated, displacement of biotinylated PD-1 Fc fusion. On the procedure:
Plates were blocked with 1% BSA and 0.05% Tween-20 in PBS, pH7.4. A serial dilution of IgGs was prepared, with eleven 1:3 dilutions starting at 1 mcg/mL, and added to plates. […] The ELISA was developed with TMB ELISA substrate solution (eBioscience, USA, cat. no. 00-4201-56).
(In an ELISA, binding on a coated surface is turned into a signal by an enzyme label.)

Assay [2] deals with T2, human PD-L1-His (BioVision, USA, cat. no. 7429) (human, UniProt Q9NZQ7 19-238, limits assumed).
T2 construct: Bought reagent without Fc tag, chosen to avoid avidity; also called His tagged PD-L1; not shown: His tag
Kind of assay: ratio of KinExA KD values (scFv1 on PD-L1 Fc fusion as reference). (In KinExA the mixture passes briefly over coated beads that capture the unbound partner.)

Assay [3] concerns the target T2, human PD-L1-His (BioVision, USA, cat. …). Briefly: KinExA in solution, human PD-L1-His titrated against constant IgG, n-curve analysis. The protocol:
All steps were carried out at room temperature. […] This voltage signal is used to calculate the KD value and activity of the scFv using the “n-curve analysis” of the KinExA® Pro software version 4.1.9 or 4.2.10 (FIG. 5) using the option “titrant as analysis concentration reference”.
These mixtures were incubated for 5 hours.

Assay [4] deals with PD-L1 expressing CHO cells (Promega, CS187103) (human, UniProt Q9NZQ7 19-290). Kind of assay: cell-based or functional assay.
Assay [5] deals with monkey PD-L1 Fc fusion (Sino Biological, China, cat. no. 90251-C02H) (Rhesus macacque (Macaca mulatta)) (UniProt F6PJN1). Briefly: ratio of KinExA KD values (human PD-L1 Fc fusion as reference).
In assay [6] the target is T3, rhB7-H3 Fc fusion (RnD Systems, USA, cat. no. 1027-B3) (human, UniProt Q5ZPR3-2 29-245, limits assumed).
T3 construct: Bought reagent; also called human B7-H3; not shown: Fc part of the bought fusion
T3 sequence (looked up): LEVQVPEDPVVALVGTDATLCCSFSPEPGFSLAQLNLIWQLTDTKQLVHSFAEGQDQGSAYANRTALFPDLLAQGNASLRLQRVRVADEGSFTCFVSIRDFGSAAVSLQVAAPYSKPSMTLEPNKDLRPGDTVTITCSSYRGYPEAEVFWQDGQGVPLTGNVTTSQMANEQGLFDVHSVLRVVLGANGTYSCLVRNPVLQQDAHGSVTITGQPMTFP
Kind of assay: binding ELISA, rhB7-H3 Fc fusion coated, Protein L-HRP detection. On the procedure: (§1) Plates were blocked with 1% BSA and 0.5% Tween-20 in PBS, pH7.2. A serial dilution of scFvs was prepared with concentrations of 5, 1 and 0.2 mcg/mL and added to plates.

For assay [7], the target named is T4, rhPD-L2 Fc fusion (RnD Systems, USA, cat. no. 1224-PL) (human, UniProt Q9BQ51 20-219).
T4 construct: Bought reagent; also called human PD-L2; not shown: Fc part of the bought fusion
T4 sequence (looked up): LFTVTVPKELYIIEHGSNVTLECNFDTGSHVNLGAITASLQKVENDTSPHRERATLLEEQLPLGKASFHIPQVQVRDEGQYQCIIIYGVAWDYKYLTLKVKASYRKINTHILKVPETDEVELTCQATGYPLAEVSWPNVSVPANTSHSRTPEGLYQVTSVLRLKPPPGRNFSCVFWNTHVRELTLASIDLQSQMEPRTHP
Briefly: binding ELISA, rhPD-L2 Fc fusion coated, Protein L-HRP detection. The protocol: as §1

The target of assay [8] is T5, natural form of PD-L1 expressed on the surface of ES-2 cells (human, UniProt Q9NZQ7 19-290).
T5 construct: whole, on cells; also called cell surface PD-L1; human natural form of PD-L1
Kind of assay: KinExA, ES-2 cells titrated against 50 pM scFv1, room temperature. On the procedure:
(§2) Duplicate measurements were prepared for each data point. […] These mixtures were incubated for 5 hours. […] These mixtures were incubated for 9 hours. […] All steps were carried out at room temperature. […] This voltage signal is used to calculate the KD value and activity of the scFv using the “n-curve analysis” of the KinExA® Pro software version 4.1.9 or 4.2.10 (FIG. 5) using the option “titrant as analysis concentration reference”.
These mixtures were incubated for 5 hours, centrifuged for 10 minutes at 3800×g, and supernatants were transferred to fresh tubes. […] All steps were carried out at room temperature.

In assay [9] the target is T6, mouse PD-L1 Fc fusion (Sino Biological, China, cat. no. 50010-M03H or RnD Systems, USA, cat. no. 1019-B7-100) (Mus musculus, UniProt Q9EP73 19-238).
T6 construct: Two bought reagents were used; not shown: Fc part of the bought fusion
Kind of assay: binding ELISA, mouse PD-L1 Fc fusion coated, Protein L-HRP detection.

Assay [10] has as its target T7, rat PD-L1 Fc fusion (Sino Biological, China, cat. no. 80450-R02H) (Rattus norvegicus (Norway rat), UniProt D4AE25 19-239).
T7 construct: Bought reagent; not shown: Fc part (and any linker) of the bought Sino Biological 80450-R02H fusion
Kind of assay: binding ELISA: coated rat PD-L1 Fc fusion, detected with Protein L-HRP. On the procedure:
Plates were blocked with 1% BSA and 0.5% Tween-20 in PBS, pH7.2. A serial dilution of scFvs was prepared with concentrations of 1 mcg/mL, 333 ng/mL and 111 ng/mL and added to plates. […] Development was with TMB ELISA substrate solution (eBioscience, USA, cat. no. 00-4201-56).

Assay [11] deals with T1, recombinant human (rh) PD-L1 Fc fusion …. Kind of assay: KinExA in solution, room temperature, PD-L1 Fc fusion titrated against constant scFv1, n-curve analysis. The protocol:
as §2

The target of assay [12] is monkey PD-L1 Fc fusion (Sino Biological, China, cat. no. 90251-C02H) (Rhesus macacque (Macaca mulatta)) (UniProt F6PJN1). Briefly: KinExA in solution, room temperature, monkey PD-L1 Fc fusion titrated against constant scFv1, n-curve analysis.
The target in assay [13] is T1, recombinant human (rh) PD-L1 Fc fusion …. Briefly: binding ELISA: coated rhPD-L1 Fc fusion, scFv1 in PBS without incubation, detected with Protein L-HRP. The protocol: (§3) After blocking with PBS, pH7.4 with, 1% BSA and 0.05% Tween-20, a series of 1:3 dilutions of 2.5 mcg/ml to 42 ng/mL serum/scFv samples was added to the ELISA plates in duplicate. […] The ELISA was developed with TMB ELISA substrate solution (eBioscience, USA, cat. no. 00-4201-56).

The target is the same in assay [14]. Briefly: binding ELISA: coated rhPD-L1 Fc fusion, scFv1 in human serum, 0 h at 37 C, detected with Protein L-HRP. The protocol: as §3
Assay [15] has the same target. Kind of assay: binding ELISA: coated rhPD-L1 Fc fusion, scFv1 in human serum, 4 h at 37 C, detected with Protein L-HRP. On the procedure:
as §3

Assay [16] shares this target. Briefly: binding ELISA: coated rhPD-L1 Fc fusion, scFv1 in human serum, 20 h at 37 C, detected with Protein L-HRP. On the procedure:
as §3

Assay [17] shares this target. Kind of assay: competition ELISA: coated rhPD-L1 Fc fusion, scFv titrated, bound biotinylated PD-1 Fc fusion (15 ng/mL) detected with streptavidin-HRP. The protocol: Plates were blocked with 1% BSA and 0.05% Tween-20 in PBS, pH7.2. A serial dilution of scFvs was prepared, with eleven 1:3 dilutions starting at 1 mcg/mL, and added to plates. […] Background level was determined in the absence of PD-1. The ELISA was developed with TMB ELISA substrate solution (eBioscience, USA, cat. no. 00-4201-56).

For assay [18] the target is unchanged. Briefly: competition ELISA: coated rhCD80-His, scFv titrated against constant 50 nM rhPD-L1 Fc fusion, bound PD-L1 Fc detected with anti-human IgG Fc-HRP. On the procedure:
Plates were blocked with 1% BSA and 0.05% Tween-20 in PBS, pH7.4. […] This mixture was incubated with the CD80 coated plates for 2 hours at room temperature. […] The ELISA was developed with TMB ELISA substrate solution (eBioscience, USA, cat. no. 00-4201-56).

T1 sequence (Q9NZQ7 19-239 limits assumed): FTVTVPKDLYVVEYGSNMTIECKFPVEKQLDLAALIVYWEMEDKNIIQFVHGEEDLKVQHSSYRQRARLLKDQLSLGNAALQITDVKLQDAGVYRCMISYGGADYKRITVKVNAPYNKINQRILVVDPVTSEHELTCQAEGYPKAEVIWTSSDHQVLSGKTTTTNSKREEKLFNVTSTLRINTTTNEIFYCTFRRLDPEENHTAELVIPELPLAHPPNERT
Chain of PD-L1 expressing CHO cells (Promega, CS187103) (Q9NZQ7 19-290): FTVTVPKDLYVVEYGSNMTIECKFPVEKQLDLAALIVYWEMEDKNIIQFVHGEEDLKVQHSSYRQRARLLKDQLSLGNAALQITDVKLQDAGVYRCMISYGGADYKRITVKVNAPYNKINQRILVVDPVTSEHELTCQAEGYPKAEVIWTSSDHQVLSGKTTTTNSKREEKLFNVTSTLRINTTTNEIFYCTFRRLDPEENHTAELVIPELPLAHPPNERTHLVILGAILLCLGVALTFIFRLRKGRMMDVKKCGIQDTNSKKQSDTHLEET
T2 sequence (Q9NZQ7 19-238 limits assumed): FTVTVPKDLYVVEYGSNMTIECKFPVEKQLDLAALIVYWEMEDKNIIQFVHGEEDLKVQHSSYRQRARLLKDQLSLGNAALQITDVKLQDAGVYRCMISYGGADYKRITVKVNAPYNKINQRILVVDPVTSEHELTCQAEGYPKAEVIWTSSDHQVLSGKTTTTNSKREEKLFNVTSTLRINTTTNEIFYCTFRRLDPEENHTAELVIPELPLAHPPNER
T7 sequence (D4AE25 entry or part of it R02H R02H limits assumed): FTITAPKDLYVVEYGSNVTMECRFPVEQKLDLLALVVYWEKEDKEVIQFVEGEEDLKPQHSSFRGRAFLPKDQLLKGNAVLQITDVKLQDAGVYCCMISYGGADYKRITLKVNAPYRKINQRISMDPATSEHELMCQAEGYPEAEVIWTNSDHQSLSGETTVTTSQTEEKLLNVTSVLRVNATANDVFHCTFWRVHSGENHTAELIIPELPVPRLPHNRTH
T6 sequence (Q9EP73 19-238 limits assumed, stated change not applied): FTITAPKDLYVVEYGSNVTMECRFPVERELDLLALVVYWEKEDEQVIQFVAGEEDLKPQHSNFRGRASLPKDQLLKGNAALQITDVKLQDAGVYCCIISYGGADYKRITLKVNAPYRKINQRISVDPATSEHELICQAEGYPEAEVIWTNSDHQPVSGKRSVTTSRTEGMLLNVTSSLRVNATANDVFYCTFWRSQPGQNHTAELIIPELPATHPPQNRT
T5 sequence (Q9NZQ7 19-290): as the sequence (Q9NZQ7 19-290) above

B1: IgG_4 (antibody, V domains shown)
VH: EVQLVESGGGVVRPGGSLRLSCAASGFTFDDYGMTWVRQAPGRGLEWVSGIHWHGKRTGYADSVKGRFTISRDNAKKSLYLQMNSLKGEDTALYHCVRGGMSTGDWFDPWGQGTLVIVSS
VL: DIQMTQSPSSLSASLGDRVTITCRASQSINSYLNWYQQKPGKAPKLLIYVASSLQSGVPSRFSGSGSGTEFTLTISNLQPEDFATYYCQQSYSTPPITFGQGTRLEIKR
notes: Produced in CHO K1 cells; also called H2M8314N as described in WO2015/112805A1
For B1, in assay [1], the half-maximal inhibitory concentration (IC50) is 0.606 nM.

B2: IgG_1 (antibody, V domains shown)
VH: EVQLVESGGGLVQPGGSLRLSCTVSGIDLSSYTMGWVRQAPGKGLEWVGIISSGGRTYYASWAKGRFTISRDTSKNTVYLQMNSLRAEDTAVYYCARGRYTGYPYYFALWGQGTLVTVSS
VL: EIVMTQSPSTLSASVGDRVIITCQASEDIYSLLAWYQQKPGKAPKLLIYDASDLASGVPSRFSGSGSGAEFTLTISSLQPDDFATYYCQGNYGSSSSSSYGAVFGQGTKLEIKR
notes: Produced in CHO K1 cells; also called scFv1 converted into IgG format
B2: in [2], the “fold tighter affinity than scFv1 to PD-L1” value is around 3 fold. In assay [3], the Kd stood at 0.00277 nM. Moreover, the 50% inhibitory concentration (IC50) in assay [1] was determined as 0.327 nM.

B3: scFv1 (scFv)
scFv: EIVMTQSPSTLSASVGDRVIITCQASEDIYSLLAWYQQKPGKAPKLLIYDASDLASGVPSRFSGSGSGAEFTLTISSLQPDDFATYYCQGNYGSSSSSSYGAVFGQGTKLTVLGGGGGSGGGGSGGGGSGGGGSEVQLVESGGGLVQPGGSLRLSCTVSGIDLSSYTMGWVRQAPGKGLEWVGIISSGGRTYYASWAKGRFTISRDTSKNTVYLQMNSLRAEDTAVYYCARGRYTGYPYYFALWGQGTLVTVSS
notes: also called E. coli cell expressed scFv1
B3: the “IC50, PD-1/PD-L1 blockade assay (luciferase, PD-L1 CHO cells and PD-1 Jurkat cells)” value in assay [4] is 0.75 nM and 0.874 nM. Besides, the fold tighter affinity than to human PD-L1 in assay [5] was found to be 2.7 fold. The binding result is reported as “no binding (tested: 5 mcg/mL)” in assay [6], “no binding (tested: 5 mcg/mL)” in assay [7], “no binding (tested: 5 mcg/mL)” in assay [9] and “no binding” in assay [10]. Besides, the figures for the equilibrium dissociation constant (Kd) in [8], in assay [11] and in [12] were 0.0128 nM, 0.0088 nM and 0.0033 nM, respectively. Also, the “EC50 (read off the curve)” value in [13], in [14], in [15] and in [16] was around 7 ng/mL each time. Besides, the “IC50 (read off the curve)” value in [17] is around 1 nM; in assay [18], 10 to 20 nM.

B4: CHO cell expressed scFv1 (scFv)
scFv: B3 scFv
For the molecule B4, the “IC50, PD-1/PD-L1 blockade assay (luciferase, PD-L1 CHO cells and PD-1 Jurkat cells)” value in [4] was 0.602 nM.
